This note sets out measurements from EP4491630A1, “T-CELL RECEPTOR FOR ACUTE MYELOID LEUKEMIA (AML)” (Universitetet I Oslo, priority 2023, dated 2025).

Ends that are not written are not given here.

The target of data set [1] is HLA-A2 presenting the cognate NY-ESO1 peptide (human) (UniProt P78358). As to the kind of experiment: cell-based or functional assay.
The test system of the next data set is TCR^FLT3D/Y cells. The following applies: 28 candidate 9mers from the human proteome pulsed on K562 cells. The method, then:
TCR-transduced T cells were co-cultured with cell lines or primary patient tumor cells at an effector:target cell ratio of 1:2 (100,000:200,000 cells/well) and reactivity was investigated by measuring CD137 upregulation or release of IFN-γ. […] Cells were placed in round or flat bottom 96-well plates and after 18-20 h of co-incubation centrifuged at 700 g for 2 min. Supernatants were harvested for measurement of IFN-γ by ELISA, while cells were washed and stained with anti-CD137. In some experiments, transduced T cells were labeled with 0.75 µM CTV to distinguish them from target cells. Reagents for IFN-γ ELISA were acquired from BD Pharmingen or R&D Systems: mouse anti-human IFN-γ capture antibody (NIB42), Biotin Mouse Anti-Human IFN-γ detection antibody (4S.B3), streptavidin-HRP, stabilized tetramethylbenzidine and hydrogen peroxide as substrate solutions, sulfuric acid as stop solution, and recombinant human IFN-γ protein as standard. The assay was performed according to manufacturer's instructions.

In data set [2] the target is T1, FLT3 wild type peptide on HLA-A*02:01 (human).
T1 peptide: DIMSDSNYV
Briefly: multimer staining.

The target of data set [3] is T2, FLT3 D835Y peptide on HLA-A*02:01 (human).
T2 peptide: YIMSDSNYV
As to the kind of experiment: CD137 upregulation; transduced T cells of 4 donors against HLA-A2-transduced K562 pulsed with titrated peptide; full-length, on cells.

In data set [4] the target is T3, MED1 peptide on HLA-A*02:01 (human).
T3 peptide: YITSDMFYV
Briefly: cytokine release.

Data set [5] addresses T4, LZTR1 peptide on HLA-A*02:01 (human).
T4 peptide: AVISDAMYI
As to the kind of experiment: cytokine release.

Data set [6] concerns the target T5, PRADC1 peptide on HLA-A*02:01 (human).
T5 peptide: AVDNDSFYV
As to the kind of experiment: cytokine release.

As for NY-ESO1-specific TCR 1G4, the T cell activation by peptide-pulsed target cells, EC50 in data set [1] is 5.5 nM. AVISDAMYI [peptide 11]: the “activation of TCR^FLT3D/Y cells (IFN-γ production)” value in the data set with TCR^FLT3D/Y cells is “activated”. Still for that read-out and setting: the value for AVDNDSFYV [peptide 15] was “activated”; that for YITSDMFYV [peptide 12] was “activated”.

B1: TCR^FLT3D/Y (TCR, V domains shown)
Valpha: ELKVEQNPLFLSMQEGKNYTIYCNYSTTSDRLYWYRQDPGKSLESLFVLLSNGAVKQEGRLMASLDTKARLSTLHITAAVHDLSATYFCAVVGGSQGNLIFGKGTKLSVKP
Vbeta: DVKVTQSSRYLVKRTGEKVFLECVQDMDHENMFWYRQDPGLGLRLIYFSYDVKMKEKGDIPEGYSVSREKKERFSLILESASTNQTSMYLCASSLSPGGGYGYTFGSGTRLTVV
Regarding B1, the binding result in data set [2] is on record as “no recognition”; in data set [4], “recognises”; in data set [5], “recognises”; in data set [6], “recognises”. The molecule also came in with an EC50 of peptide in data set [3] of 0.081 nM.
